Laboratory results from PMC11589570, “Critical assessment of LC3/GABARAP ligands used for degrader development and ligandability of LC3/GABARAP binding pockets” (Nature Communications, 2024).

Target: 1_(1-117) (human), Q9H0R8
Assay: FP
Conditions: modification not given

1_(1-117) (human), Q9H0R8, sequence (Q9H0R8 whole entry): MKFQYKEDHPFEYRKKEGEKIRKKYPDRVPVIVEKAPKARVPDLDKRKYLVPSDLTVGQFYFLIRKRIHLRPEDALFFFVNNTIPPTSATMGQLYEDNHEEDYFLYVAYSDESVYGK

Ki [µM] | Binder
5.5 | SDNSSGGDDDWTHLSSK [p62-LIR]
163 | LNSGVEYYWDQLNETV [AMBRA1-LIR]
3.7 | AGLNSSWVELPMNSS [NIX-P2-LIR]
